The subject of one series is peptide substrate (MGMM). Nature of the series: MetAP activity assay of immunopurified HA-tagged yeast MetAP2 with Met-Gly-Met-Met. Type of series: biochemical. The conditions noted are these: immunopurified HA-tagged enzyme from map1Δ; 2 mM Met-Gly-Met-Met. The procedure:
[…]. Approximately 2 μg of purified wild-type MetAP2 (WT) and MetAP2 (H174A) was separated on a 10% SDS-PAGE gel and visualized with coomassie blue staining. Specific activity for the wild-type MetAP2 was 11±0.5 U/mg.
The purification of HA-tagged wild-type and mutant yeast MetAP2 from a yeast map1Δ strain (Klinkenberg et al., Arch. Biochem. Biophys. 347:193-200, 1997) was performed as previously described (Li and Chang, 1995) with slight modifications. A 1-liter yeast culture was grown aerobically at 30° C. in SG/Leu^− medium. Cells were collected at an OD600˜1-2 by centrifugation at 1500×g for 5 min. The pellet was rinsed with buffer XL (10 mM Hepes, pH 7.4; 1.5 mM MgCl2, 10% Glycerol [v/v]) plus 100 mM NaCl and fresh protease inhibitors (1 μg/ml aprotinin, 1 μg/ml leupeptin, 0.7 μg/ml pepstatin A, 1 mM phenylmethylsulfonyl fluoride). Cells were disrupted by vortexing (5 cycles of 1 min vortexing, 1 min on ice) with 0.5-mm acid-washed glass beads (Biospec Products, Inc.,). The lysate was then cleared at 10,000×g for 20 min at 4° C. Cleared lysate was applied to a Protein-Sepharose G column (Pharmacia) previously rinsed and pre-equilibrated with buffer XL and an anti-hemagglutinin epitope ([…]; SEQ ID NO:23) monoclonal antibody (BabCO). After loading, the column was washed with buffer XL until OD280<0.01. […]

A further series has as its system yeast map1Δ strain. The series is described as follows: Yeast growth assay, map1Δ, expression under GAL1 promoter. Type of series: cell-based, yeast (S. cerevisiae). The note with it: galactose plates, 4 days at 30° C. The procedure:
A haploid yeast map1Δ strain was transformed to leucine prototrophy with p425GAL1/MAP2 wild-type (WT), p425GAL1/map2 (H174A), or p425GAL1 vector alone (V). Each strain was grown to mid-logarithmic phase at 30° C. in minimal synthetic raffinose medium lacking leucine. Approximately 2×10^5 cells (ABS600) were then streaked onto minimal synthetic plates lacking leucine and supplemented with (A) glucose or (B) galactose. Plates were incubated for 4 days at 30° C.
A haploid yeast map1Δ strain was transformed to leucine prototrophy with p425GAL1/MAP2 wild-type (WT), p425GAL1/map2 ([…]), p425GAL1/map2 (Δ2-57/H174A) or p425GAL1 vector alone (V). Each strain was grown to mid-logarithmic phase at 30° C. in minimal synthetic raffinose medium lacking leucine. […]
For relative growth comparison, strains were grown to mid-logarithmic phase in 5 ml of 2% raffinose minimal media lacking leucine and ˜2×10^5 cells (ABS600) were streaked onto SD/Leu^− or SG/Leu^− plates, then incubated for 4 days at 30° C. For quantitative comparison, a growth curve was obtained (FIG. 4). […] The ABS600 of each 1 mL culture was measured and diluted to an ABS600 of 0.2 in 5 mL of SG/Leu^−. Each 5 mL culture was then grown aerobically at 30° C. and the ABS600 was measured in triplicate at one-hour intervals.

We go through one molecule from patent US20050032221A1, “Dominant negative variants of methionine aminopeptidase 2 (MetAP2) and clinical uses thereof” (priority 2001, published 2005).

B1: wild-type MetAP2: wild-type yeast MetAP2 with N-terminal hemagglutinin tag (SEQ ID NO:14) (protein, listed as Saccharomyces sp.)
chain: MTDAEIENSPASDLKELNLENEGVEQQDQAKADESDPVESKKKKNKKKKKKKSNVKKIELLFPDGKYPEGAWMDYHQDFNLQRTTDEESRYLKRDLERAEHWNDVRKGAEIHRRVRRAIKDRIVPGMKLMDIADMIENTTRKYTGAENLLAMEDPKSQGIGFPTGLSLNHCAAHFTPNAGDKTVLKYEDVMKVDYGVQVNGNIIDSAFTVSFDPQYDNLLAAVKDATYTGIKEAGIDVRLTDIGEAIQEVMESYEVEINGETYQVKPCRNLCGHSIAPYRIHGGKSVPIVKNGDTTKMEEGEHFAIETFGSTGRGYVTAGGEVSHYARSAEDHQVMPTLDSAKNLLKTIDRNFGTLPFCRRYLDRLGQEKYLFALNNLVRHGLVQDYPPLNDIPGSYTAQFEHTILLHAHKKEVVSKGDDYGKMRFQMASSLGIILL
modifications: N-terminal HA tag; Yeast MetAP2
B1 registered a Specific activity in the series with peptide substrate (MGMM) of 11±0.5 U/mg. The “colony size / growth relative to map1Δ with vector alone” value with yeast map1Δ strain is “largest observed”.
